We go through 1 molecule from paper PMC2570489, “The Co-Operonic PE25/PPE41 Protein Complex of Mycobacterium tuberculosis Elicits Increased Humoral and Cell Mediated Immune Response” (PLoS ONE, 2008).

This assay addresses T1, PPE41 protein of Mycobacterium tuberculosis (Mycobacterium tuberculosis, UniProt Q79FE1 1-194).
T1 construct: also called Rv2430c; rRv2431c (as printed in the methods)
T1 sequence: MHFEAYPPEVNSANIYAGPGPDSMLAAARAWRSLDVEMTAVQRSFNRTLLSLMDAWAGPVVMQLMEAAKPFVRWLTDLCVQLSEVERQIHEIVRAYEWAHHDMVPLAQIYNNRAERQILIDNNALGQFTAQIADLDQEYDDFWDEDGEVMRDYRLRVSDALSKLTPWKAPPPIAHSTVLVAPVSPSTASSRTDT
The assay can be described thus: co-purification by Cobalt affinity chromatography. Particulars: partners not purified.

B1: PE25 protein of Mycobacterium tuberculosis (natural protein)
chain: MSFVITNPEALTVAATEVRRIRDRAIQSDAQVAPMTTAVRPPAADLVSEKAATFLVEYARKYRQTIAAAAVVLEEFAHALTTGADKYATAEADNIKTFS
notes: also called Rv2431c; rRv2430c (as printed in the methods)
B1: the binding result is reported as “binds”.
